Assay results taken from publication PMC4157633 (Laboratory investigation; a journal of technical methods …, 2014).

B1: human carcinoembryonic antigen (hCEA) protein, purified (natural protein, UniProt P06731 35-685, looked up)
chain: KLTIESTPFNVAEGKEVLLLVHNLPQHLFGYSWYKGERVDGNRQIIGYVIGTQQATPGPAYSGREIIYPNASLLIQNIIQNDTGFYTLHVIKSDLVNEEATGQFRVYPELPKPSISSNNSKPVEDKDAVAFTCEPETQDATYLWWVNNQSLPVSPRLQLSNGNRTLTLFNVTRNDTASYKCETQNPVSARRSDSVILNVLYGPDAPTISPLNTSYRSGENLNLSCHAASNPPAQYSWFVNGTFQQSTQELFIPNITVNNSGSYTCQAHNSDTGLNRTTVTTITVYAEPPKPFITSNNSNPVEDEDAVALTCEPEIQNTTYLWWVNNQSLPVSPRLQLSNDNRTLTLLSVTRNDVGPYECGIQNELSVDHSDPVILNVLYGPDDPTISPSYTYYRPGVNLSLSCHAASNPPAQYSWLIDGNIQQHTQELFISNITEKNSGLYTCQANNSASGHSRTTVKTITVSAELPKPSISSNNSKPVEDKDAVAFTCEPEAQNTTYLWWVNGQSLPVSPRLQLSNGNRTLTLFNVTRNDARAYVCGIQNSVSANRSDPVTLDVLYGPDTPIISPPDSSYLSGANLNLSCHSASNPSPQYSWRINGIPQQHTQVLFIAKITPNNNGTYACFVSNLATGRNNSIVKSITVSASGTSPGLSA

How the values were obtained:
[1] = target: B1; assay: ELISA
[2] = target: anti-EGFR VHH122-fiber-fibritin chimera displayed on the AdVHH122Luc vector (human adenovirus serotype 5 | …); assay: ELISA

Binder	EC50 [1]	binding result [2]
anti-hCEA VHH JJB-A3, thioredoxin fusion protein (VHH) VHH: QVQLVETGGGLVQPGGSLRLSCAASGRISDINAMGWYRQAPGKQRELVAAITSVGSNYVDSVKGRFTISKDNAKNTVYLQMYSLNPEDTAVYYCNTQCGTWLVCDGRDQWGKGTLVTVSS	~0.15 nM	–
anti-hCEA VHH JJB-B2, thioredoxin fusion protein (VHH) VHH: QVQLVETGGGLVQPGGSLRLSCAASESIFSTYAMGWYRQAPGKQRELVAAITTNDIANYADSVKGRFTISRDNAKNTVYLQMNSLNPEDTAVYYCNAIFPPYNYWGQGTQVTVSS	~0.2 nM	–
anti-hCEA VHH JJB-D1, thioredoxin fusion protein (VHH) VHH: QVQLVESGGLVQAGGSLRPSCAASGSIFLQNAMGWYRQVPGKQRELVAAITSVDSTNYADSVKGRFTISRDNAKNTVYLQMNSLKPEDTAVYYCNAPWNSDYHWGKGTLVTVSS	~1 nM	–
anti-hCEA VHH JJB-B5, thioredoxin fusion protein (VHH) VHH: QVQLVETGGGLVQPGGSLRPSCTASGSIFSIYAMGWYRQASGKQRELVALITRDEVFNYADSVKGRFTISRDNAKDTVYLQMNSLKPEDTAVYYCWVETVNDHYNSGVEDYWGQGTQVTVSS	~50 nM	–
B1	–	no binding
